Experiment: yeast display, Sf9 membrane polyspecificity reagent, FACS + sequencing; frameworks hold sequencing errors
Summary of the method: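 Using colony PCR, genes from sorted yeast display clones were amplified, then sequenced on MiSeq at 2 × 250 and filtered by CDR length. The clones had been stained with 10% biotinylated, detergent-solubilized Sf9 membrane reagent for 1 hour at 4 °C and sorted by FACS into low and high (top ~1%) gates on anti-HA and streptavidin fluorescence. Polyreactivity labels come from the gate of origin.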

| Sequence | polyreactivity (PSR sort gate) |
| --- | --- |
| QVQLVESGGGLVQAGGSLRLICAASGRTFYKYAMGWYRQAPGKEREFVADISSRGGSTYYADSVKGRFTISRDNAKNTVYLQMNSLKPEDTSVYYCAAFSDLTFWHHFSELYYWGQGTQVTVSS | high polyreactivity |
| QVQLVESGGGLDQAGGSLRLSCAASGFISPWYAMGWYRPAPGKERELDAAIDWSGGSTYYADSVKGRFTISRDNAKNTVYIQMKSLKPEDTAVYYCAARYYTAAVRAGRVRMYSWGQGTQVTVSS | high polyreactivity |
| QVQLVESCGGLVKAGGSLRLSCDASGSTFYNNAMGWYRQAPGKERELVAVITSGGGSTYYADSVKGRFTISRDNAKNTVYLQMNSLKPEDTAVYYCAAKRPFYKYLWLDVRGNYWGQGTQVTVSS | low polyreactivity |
| QVQLQESGGGLVQAGGSLRLSSAASGSIIQYGYMGWYRQAPGKEREFVAGIGGGTSNYADSVKGRFTMSRDNAKNTVYLQMNSLKPEDTAVYYCNTDAGDYYGENYWGQGTQVTVSS | low polyreactivity |
| QVQLVESGGGLVQAGGSLRLRCAASGRIFLPYAMGWYRQAPGKERELVAGISSRGSTKYADSVKGRFTISRDNAKNTVYLQMNTLKPEETAVYYCNKVKKSDKFNNFSNDYWGQGTQVTVSS | high polyreactivity |
| QVQLVESGGGLVQAGGSLRISCAASGFTFWYYVMGWYRQAPGKERELVAAISSGGSTYYADSVKGRFTISRDNAKNTVYLQINSLKPEDTAVYYCAASYRSATRQFDYWGQGTQVTVSS | low polyreactivity |
| QVQLVESGGGLVQAGGSLRLSCAASGFIFLSYAKGWYRQAPGKERELVATITWSGGRTYYADSVKGRFTISRDNAKNTVYLQMNSLKPEDTAVYYCAKVNTYYNIYVTFDYWGQGTQVTVSS | low polyreactivity |
| QVQLVESGGGLVQAGGSLRLSCAASGFIFKTYAMGWYRQAPGKERELVAAITGTGTSTYYADSVKGRFTISRDNAKNTVYLQMNSLKTEDTAVYYCAAEFGGRSYYPRHEYWGQGTQVTVSS | low polyreactivity |
| QDQLVESGGGFVQARGSLRLSCAACGFIFYANAMGWYRQAPGKERELVAGISWSGTSTYYADSVKGRFTISRDNAKNTVYLQMNSLKPEDTAVYYCNRVFYHFDVDRYDYWGQGTQVTVSS | low polyreactivity |
| QVQIVESGGGLVQAGGSLRLSCDASGRIFTAYAMGWYRQAPGKERELVAAISSGDSTYYAYSVKGRFSISRDNAKNTLYLQMNSLNPEDTEVYYCATCVYPDFEYDSWGQGTQVTVSA | low polyreactivity |
| QVQLVESGGGLVQAGGRLRLSCAASGRIFVRYVMGWYRQAPGKERELVAAISGGGSSTYYADSVKGRFTISRDNAKNTVYLQMNSLKPVDTAVYYCAAKGTRQPRFDFWGQGTQVTVSS | high polyreactivity |
| QVQLVESGGGLVQAGGSLRLSCAASGYIFRYNAMGWYRQAPGKERELVAAIRATGGSTYYADSVKGRFTISRDNAKNTVSLQMNSLKPEDTAVYYCNAGGQGRTYRYYYWGQGTQVTVSS | high polyreactivity |
| QVQLVESGGGLVQAGGSLRLSCAASGIIYGIYAMGWYRQAPGKERELVAAITSRGGTTYYADSVKGRFTISRDNAKNTVYLQMNSLKPEDTAVYYCAARGRRYSHRVGYDWGQGTQVTVSS | high polyreactivity |
| QVQLVESGGGLVQAGGSLRLSCAASGRIFRSYVMGWYRQAPGKERELVAVISKNGGTTYYADSVKGRFTISRDNAKNTVYFQRNSLKPEDTAVYYCAARRLGYYRKVKELDYWGQGTQVTVSS | high polyreactivity |
| QVQLVESGGGLLKAGGSLRLSCAASGSTFSVYAMGWYRQAPGKEREFVARITWNGGRTYYADSVKGRFTISRDNAKNTVYLQMNSLKPEDTAVYYCAARGPTVTGTGGDYWGQGTQVTVSS | high polyreactivity |
| QVQLVESGGGLVQAGGSLRLSCAASGFTFVYNAMGWYRQAPGKERELVASITQSGDITYYADSVKGRFTISRDNAKNTVYLQMNSLKPEDTAVYYCNKFQGTGDRFDSWGQGTQVTVSS | low polyreactivity |

| Sequence | polyreactivity (PSR sort gate) |
| --- | --- |
| QVQIVESGGGLVQEGGSLRLSCAASGRIFEPYDMGLYRQSPGKERELVAALRCSGGSTYYADSVKGRFTISRDNAKNTVYLQMNSLKPEDTAVYYCAKDAFGWGRVYYYRSGYWGQGTQVTVSS | high polyreactivity |
| QVQLVESGGGLGQAGGSLRLICAASGRTFLYNAMGWYRQAPGNERELVASITSGGSTNYADSVKGRFTISRDNAKNTVNLQMNSVKPEDTAVYYCAADERRPYWQHSIGSGRPFDYWGQGTQVTVSS | low polyreactivity |
| QVQLVESGGGLVQAGGSLRLSCAASGFIFSNNAMGWYRQAPGKERELVAVINGGGSTYYADSVKGRFTISRDNAKNTVYLQMNSLKPEDTAVYYCARKSWPKERRVDPGYDYWGQGTQVTVSS | low polyreactivity |
| QVQLVESGGGLVQAGGSLRLSCAASGSIFFLYAMGWYRQAPGKEWELVAAISGGGGSTYYADSVKGRFTISRDNAKNTVYFQMNCLKPEDTAVYNSAARTRVTKREYDYWGQGTQVTVSS | high polyreactivity |
| QVQLVESGGGLVQAGGSLRLSCAASGRTFYTNAMGWYRQAPGKERELSTNYADSVKGRFTISRDNAKNTVYLQMNSLKPEDTAVYYCNADGFLRFAGFDYWGQGTQVTVSS | low polyreactivity |
| QVQLVESGGGLVQAGGSLRLSCAASGFTFRYYVMGWYRQAPGNEREFVAAITWADGSTFYAVSVKGRFTISRDKAKNTDYLHMNSLKPEDTAVYYCAADYSRTYRAYDYWGQGTQVTVSS | low polyreactivity |
| QVQLVESGGGLVQAGGSLRLSCAASGSIFARNAMGSYRQAPGKERELVAAITVRGRTNYADSVKGRFTISRDNAKNTVYLQMNSLKPDDTAVYYCAASLWDDDSRLMYYWGQGTQVTVSS | high polyreactivity |
| QFQLVESGGGLVQAGGSLRLSCAASGRTFIVYAMGWYRQAPGKERELVAGITLGSTNYADSVKGRFTISRDNAKNTVYLQMNSLKPEDTAVYYCAARSSRRGPISEGDYWGQGTQVTVSS | high polyreactivity |
| QVQLVESGGGLVQAGGSLRLSCAASGSTFQGNAMGWYRQAPGKERELVAAISTSGGRTRYADSVKGRFTISRDKAKNTVYLQMNSLKPEDTAVYHCATTYWYGKRPKMYYWGQGTQVTVSS | high polyreactivity |
| QVQLVESGGGLVQAGGSLRISCAPSGRTFGINAMGWYRQAPGKERELVAVISFGDGGTYYADSVKGRFTISRDNAKNTVYLQMNSLKPEDTAVYYCATDYQSTSVWGGHFVINPYDYWGQGTQVTVSS | low polyreactivity |
| QVQLVESGGGLVQAGGSLRLSCAASGRIFGTYAMGWYRQAPGKERELVAAITQSGGRTYYADSVKGRFTISRDNAKNTVYLQMNSLKPEDTAVYYCNKVTYRGIGLGYDYWGQGTQVTVSS | high polyreactivity |
| QVQLVESGGGLVQAGGSLRLSCAASGRTFLYNAMGWYRQAPGKERELVAAISWSGGSTYYADSVKGRFTISRDNAKNTVYLQMNSLKPEDTAVYYCAATGRRSGFYYWGQGTQVTVSS | high polyreactivity |
| QVQLVESGGGLVQAGGSLRLSCAASGSTFAIYAMGWYRQAPGKERELVAAITGRSGSTYYADSVKGRFTISRDNAKNTVYLQMNSLKPEDTAVYYCAAQGGYRRTPYIHRDYWGQGTQVTVSS | high polyreactivity |
| QVQLVESGGGLVQAGGSLRLSCAASGFTFSHYAMGWYRQAPGKERELVAAISRRGSSTYYADSVKGRFTISRDNAKNTVYLQMNSLKPEDTAVYYCNVERLTGVWYYQRPSQDGYWGQGTQVTVSS | high polyreactivity |
| QVQLVESGGGLVQAGGSLRLSCAASGRTFYIYAMGWYRQAPGTERELVAAITGCGGSTYYADSVKGRFTISRDNAKNTVYLQMNSLKPEDTAVYYCAAGFYGDGYTQGYGYWGQGTQVTVSS | low polyreactivity |

— the nanobody polyreactivity screen of Harvey et al. (2022)
